In PMC7939381 (2020) one finds Kd and Ka data, which are given here for 14 molecules.

The chains are these.
B1: 14-3-3β/α, full length, N-terminally His6-tagged (natural protein)
chain: MTMDKSELVQKAKLAEQAERYDDMAAAMKAVTEQGHELSNEERNLLSVAYKNVVGARRSSWRVISSIEQKTERNEKKQQMGKEYREKIEAELQDICNDVLELLDKYLIPNATQPESKVFYLKMKGDYFRYLSEVASGDNKQTTVSNSQQAYQEAFEISKKEMQPTHPIRLGLALNFSVFYYEILNSPEKACSLAKTAFDEAIAELDTLNEESYKDSTLIMQLLRDNLTLWTSENQGDEGDAGEGEN
B3: 14-3-3σ, full length, N-terminally His6-tagged (natural protein)
chain: MERASLIQKAKLAEQAERYEDMAAFMKGAVEKGEELSCEERNLLSVAYKNVVGGQRAAWRVLSSIEQKSNEEGSEEKGPEVREYREKVETELQGVCDTVLGLLDSHLIKEAGDAESRVFYLKMKGDYYRYLAEVATGDDKKRIIDSARSAYQEAMDISKKEMPPTNPIRLGLALNFSVFHYEIANSPEEAISLAKTTFDEAMADLHTLSEDSYKDSTLIMQLLRDNLTLWTADNAGEEGGEAPQEPQS
B4: 14-3-3η, full length, N-terminally His6-tagged (natural protein)
chain: MGDREQLLQRARLAEQAERYDDMASAMKAVTELNEPLSNEDRNLLSVAYKNVVGARRSSWRVISSIEQKTMADGNEKKLEKVKAYREKIEKELETVCNDVLSLLDKFLIKNCNDFQYESKVFYLKMKGDYYRYLAEVASGEKKNSVVEASEAAYKEAFEISKEQMQPTHPIRLGLALNFSVFYYEIQNAPEQACLLAKQAFDDAIAELDTLNEDSYKDSTLIMQLLRDNLTLWTSDQQDEEAGEGN

The target in test [1] is peptide 13. As to the kind of experiment: FP.
Test [2] addresses B4. Briefly: ITC; replicate B.
For test [3], the target named is B4. As to the kind of experiment: ITC; replicate A.
Test [4] concerns the target B4. As to the kind of experiment: ITC.
The target in test [5] is B1. As to the kind of experiment: FP.
Test [6] has as its target B4. As to the kind of experiment: FP.
For test [7], the target named is B3. Briefly: FP.
For test [8], the target named is B4. As to the kind of experiment: FP.
Test [9] has as its target B1. Briefly: FP.
Test [10] deals with T1, 14-3-3θ, full length, N-terminally His6-tagged (human, UniProt P27348 1-245).
T1 chain: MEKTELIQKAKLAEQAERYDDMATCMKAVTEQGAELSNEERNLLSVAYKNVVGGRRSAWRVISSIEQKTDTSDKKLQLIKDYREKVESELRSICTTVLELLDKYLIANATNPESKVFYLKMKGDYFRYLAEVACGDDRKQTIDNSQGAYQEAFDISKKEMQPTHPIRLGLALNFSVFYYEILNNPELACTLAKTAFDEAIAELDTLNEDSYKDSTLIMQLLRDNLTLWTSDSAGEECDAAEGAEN
Briefly: FP.

Test [11] concerns the target T2, 14-3-3ζ, full length, N-terminally His6-tagged (human, UniProt P63104 1-245).
T2 chain: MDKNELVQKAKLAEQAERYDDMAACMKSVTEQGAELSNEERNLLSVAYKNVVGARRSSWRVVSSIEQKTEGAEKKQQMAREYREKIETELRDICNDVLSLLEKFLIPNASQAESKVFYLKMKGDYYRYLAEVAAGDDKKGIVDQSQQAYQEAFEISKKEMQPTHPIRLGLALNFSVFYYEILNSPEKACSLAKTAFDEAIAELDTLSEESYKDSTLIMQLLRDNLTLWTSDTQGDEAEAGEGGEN
As to the kind of experiment: FP.

For test [12], the target named is B3. As to the kind of experiment: FP.
Test [13] concerns the target B4. Briefly: FP.
For test [14], the target named is T3, 14-3-3ε, full length, N-terminally His6-tagged (human, UniProt P62258 1-255).
T3 chain: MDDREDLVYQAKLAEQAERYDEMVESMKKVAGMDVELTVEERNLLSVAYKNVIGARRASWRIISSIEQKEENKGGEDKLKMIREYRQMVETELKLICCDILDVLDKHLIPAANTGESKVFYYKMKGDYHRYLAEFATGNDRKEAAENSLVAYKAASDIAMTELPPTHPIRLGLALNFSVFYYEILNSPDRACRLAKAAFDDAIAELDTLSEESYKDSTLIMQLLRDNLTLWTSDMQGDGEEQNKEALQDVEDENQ
As to the kind of experiment: FP.

The target in test [15] is T4, 14-3-3γ, full length, N-terminally His6-tagged (human, UniProt P61981 1-247).
T4 chain: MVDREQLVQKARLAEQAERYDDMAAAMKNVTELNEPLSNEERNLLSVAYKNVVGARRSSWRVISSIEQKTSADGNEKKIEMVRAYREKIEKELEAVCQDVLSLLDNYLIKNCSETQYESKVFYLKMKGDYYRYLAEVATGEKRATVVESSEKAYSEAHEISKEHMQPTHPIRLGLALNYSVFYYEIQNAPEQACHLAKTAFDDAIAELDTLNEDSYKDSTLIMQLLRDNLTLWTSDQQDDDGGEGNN
Briefly: FP.

For test [16], the target named is B1. As to the kind of experiment: FP.
Test [17] has as its target peptide 13. Briefly: FP. The source holds these as a separate data set.

Several values for one entry are separate records, joined by “and”; a condition that tells them apart may be missing. Identical values can stand only once. Like-named read-outs stand apart in the source and are kept apart here. Primed or numbered codes have the meaning given here. Where no end group is shown, it is not given here. [ ]: non-standard residue; d: D form. The star is where a group is joined. PEG2′ = short PEG linker placed between the N-terminal FITC label and the peptide; FITC = O=C1OC2(c3ccc(O)cc3Oc3cc(O)ccc32)c2ccc(NC(=S)*)cc21; pT = C[C@@H](OP(=O)(O)O)[C@H](N)C(=O)O; pS = N[C@@H](COP(=O)(O)O)C(=O)O

For B1, the Kd in test [1] was > 167 µM.

NKNAN[pS]SPV [peptide 1, APN 38–46 pSer43, as used in ITC]: the dissociation constant (Kd) in [2] was 2.01 µM; in test [3], 2.48 µM. In addition, the Ka in test [4] is 403000 M⁻¹ and 488000 M⁻¹ and 497000 M⁻¹.

As to NPASA[pT]TLD [peptide 15, monophosphorylated APN 9-mer pThr63 (site 2)], binding in [5] was characterised by a dissociation constant (Kd) of 45 µM.

On to {FITC-PEG2′}-EKNKNAN[pS]SPVASTTPSASATTNPASATTLDQSKAWNR (also: second phosphorylated Ser/Thr, site not given here) [fluorescently labeled peptide 8, APN 36–73, bis-phosphorylated], for which the equilibrium dissociation constant (Kd) in test [6] is 18 µM; in test [7], > 167 µM; in test [8] it was 18 µM; in test [9], 32 µM.

B2: fluorescently labeled peptide 11, APN 36–73 pSer43 pThr63 (peptide)
peptide: EKNKNAN[pS]SPVASTTPSASATTNPASA[pT]TLDQSKAWNR
modifications: not fully specified (N-terminus); also: FITC via PEG2 linker, site not given here
For B2, the dissociation constant Kd in test [7] was determined as 1.8 µM; in test [9], 0.11 µM.

Take {FITC-PEG2′}-NKNAN[pS]SPV [FITC-labeled peptide 1, APN 38–46 pSer43]: the Kd in test [7] was determined as 3.5 µM; in test [9], 0.71 µM; in [10], 2 µM; in test [11] it was 1.2 µM; in [12], 3.9 µM; in [13], 0.21 µM. In addition, the Kd was 1.1 µM in test [14], 1.16 µM in [15] and 0.7 µM in test [16].

Take {FITC-PEG2′}-EKNKNAN[pS]SPVASTTPSASATTNPASATTLDQSKAWNR (also: second phosphorylation within Ser61–Thr64, site not given here) [fluorescently labeled peptide 10, APN 36–73, bis-phosphorylated]: the Kd in [6] is 0.42 µM; in test [7], 6.6 µM; in test [8], 0.42 µM; in test [9], 0.88 µM.

As to {FITC-PEG2′}-EKNKNAN[pS]SPVASTTPSASATTNPASATTLDQSKAWNR (also: second phosphorylated Ser/Thr, site not given here) [fluorescently labeled peptide 9, APN 36–73, bis-phosphorylated], the dissociation constant Kd in test [6] was 15 µM; in [7], > 167 µM; in [8] it was 15 µM; in [9], 23 µM.

As to B3, the Kd in test [1] is > 167 µM.

For the molecule B4, the equilibrium dissociation constant (Kd) in test [1] and in test [17] was > 83 µM in each case.

As for {FITC-PEG2′}-EKNKNAN[pS]SPVASTTPSASATTNPASATTLDQSKAWNR (also: second phosphorylation within Ser61–Thr64, site not given here) [fluorescently labeled peptide 12, APN 36–73, bis-phosphorylated], the Kd in [6] was found to be 0.18 µM; in test [7], 4.1 µM; in test [8], 0.18 µM; in [9], 0.45 µM.

B5: fluorescently labeled peptide 7, APN 36–73 pSer43 (peptide)
peptide: EKNKNAN[pS]SPVASTTPSASATTNPASATTLDQSKAWNR
modifications: not fully specified (N-terminus); also: FITC via PEG2 linker, site not given here
With B5, the figures for the dissociation constant (Kd) in test [7] and in test [9] were > 167 µM and 60 µM, respectively.

With TTNPASATT (also: one phosphorylated Ser/Thr within Ser61–Thr64) [peptide 14, monophosphorylated APN 9-mer (noncanonical site of peptide 10)], the values for the dissociation constant (Kd) in test [6] and in test [5] were 70 µM and > 167 µM, respectively.

In the case of PASATTLDQ (also: one phosphorylated Ser/Thr within Ser61–Thr64) [peptide 16, monophosphorylated APN 9-mer (noncanonical site of peptide 12)], the Kd is > 167 µM in [6] and > 333 µM in test [5].
